Data taken from patent US20210139593A1 (UNIVERSIDAD DE CHILE, published 2021).

Target: T1, recombinant MICA (rMICA) (UniProt Q29983 24-307, limits assumed)
T1 construct: Recombinant MICA coated on ELISA plates
T1 sequence (looked up): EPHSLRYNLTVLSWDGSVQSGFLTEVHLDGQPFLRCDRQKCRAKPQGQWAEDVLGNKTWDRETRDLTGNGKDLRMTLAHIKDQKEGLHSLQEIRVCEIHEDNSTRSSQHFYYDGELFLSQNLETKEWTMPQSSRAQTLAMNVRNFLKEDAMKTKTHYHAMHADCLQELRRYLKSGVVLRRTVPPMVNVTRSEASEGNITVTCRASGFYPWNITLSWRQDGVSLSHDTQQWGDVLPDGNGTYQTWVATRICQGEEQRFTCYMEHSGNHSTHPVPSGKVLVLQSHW
Assay: method not stated

B1: anti-MICA scFv protein (scFv-aMICA) (scFv)
scFv: EFGVVMTQSPDFQSVTPKEKVTITCRASQSIGRSIHWYQQKPDQSPKLLVMYASQSFSGVPSRFSGSGSGTDFTLTINSLEAEDAATYYCHQSYSVPRSFGQGTKLEIKRTVAAGGSSRSSSSGGGGSGGGGQVQLQESGPGLVKPSQTLSLTCTVSGDSVRSAYSSWNWIRQPPGKGLEWIGQIHPNGNTYYNPSLMSRITVSIDTSKNQFSLKLDSVTAADTAVYFCATEGVTSESGSFDIWGQGRMVIVSSASTKGPSVAS
notes: Monomeric soluble scFv produced from the phagemid pUCH1 Amber; also called scFv-MICA
  Ka: 7.4e+06 M⁻¹
  Kd: 135 nM
